Measurements: patent US20180172709A1

Biological target: recombinant Syrian golden hamster proteinase K-sensitive prion protein (residues 23-231) (Syrian golden hamster) (UniProt Q60468)
Test: cell-based or functional assay

Substance: hamster proteinase K resistant prion protein (263K scrapie strain), purified from hamster brains or (from UniProt P04273 23-231)
- amount of PrP^Sc seed detected, 4-hour QUIC at 65° C.: 100 fg
- amount of PrP^Sc seed detected, 8-hour QUIC at 55° C.: 10 fg
- amount of PrP^Sc seed detected, triplicate 18-hour QUIC at 55° C.: 1 fg
- amount of PrP^Sc seed frequently positive, first 48-hour QUIC round: 25 to 50 ag
- amount of PrP^Sc seed positive in one sample, second serial QUIC round: 10 ag
